The data set in a line: protein stability index of a GFP-peptide fusion (GPS, HEK-293T) (PSI 1-6); higher = more stable. The following applies: c terminus: a fixed tail appended.

± gives the standard deviation.
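Note: 24-mer peptide tiles fused after GFP, lentivirally expressed, FACS-sorted into six equal bins by GFP/DsRed ratio, decoded by Illumina sequencing, PSI is the read-weighted mean bin number.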

For the sequence LVAFVLLNECVGTAYWALAGSIGG [SLC22A15], the protein stability index was determined as 3.05 ± 0.34 (treatment: DMSO) and 2.86 ± 0.38 (treatment: MLN4924 1 uM, 8 h). Consider LVDQSKKANSPLKGHERTVQYLQH [VPS39], for which the protein stability index (treatment: DMSO) stood at 4 ± 0.3 and the protein stability index (treatment: MLN4924 1 uM, 8 h) is 3.85 ± 0.32. The corresponding values for LVKKYGTKQWTLIAKHLKGRLGKQ [MYBL2] are 2.43 ± 0.89 and 2.45 ± 0.53. The corresponding values for LWPFAWLQVAGLSEEQLQEPITGW [LPCAT4] are 2.38 ± 0.18 and 2.5 ± 0.34. Taken in the same sequence, the figures for LYKSLKTLSAELVPWLNLKKQDEN [CEP70] were 2.37 ± 0.49 and 2.03 ± 0.37.

Turning to LYLEEIADRIIEVDMECQTDAFLD [RSPH3], the protein stability index reads like this: (treatment: DMSO) 2.44 ± 0.74; (treatment: MLN4924 1 uM, 8 h) 2.59 ± 0.28. Regarding LYLIAKRNRKLKCTFSLTHPANRS [SLC22A15], the protein stability index reads like this: (treatment: DMSO) 2.49 ± 0.41; (treatment: MLN4924 1 uM, 8 h) 2.41 ± 0.17. LYPSLGAGYRLGPAQPGADSSFPP [TBX6] gave a protein stability index (treatment: DMSO) of 3.38 ± 0.039 and a protein stability index (treatment: MLN4924 1 uM, 8 h) of 3.39 ± 0.24. On to MADADEGFGLAHTPLEPDAKDLPC [TBX5], for which the protein stability index runs as follows: (treatment: DMSO) 5.24 ± 0.27; (treatment: MLN4924 1 uM, 8 h) 5.13 ± 0.22. Taken in the same sequence, the figures for MAGSDTAPFLSQADDPDDGPVPGT [SPNS1] were 5.57 ± 0.17 and 5.34 ± 0.23. Taken in the same sequence, the figures for MAPVMAHVDPEEPWSPCSARFITD [ADAMTS4] were 3.76 ± 0.4 and 3.85 ± 0.37. Take MCVAQVLTAHLLPPRQALGSLCSP [YPEL3]: the protein stability index (treatment: DMSO) is 2.8 ± 0.93 and the protein stability index (treatment: MLN4924 1 uM, 8 h) was determined as 2.8 ± 0.35. The corresponding values for MDATNAFKKTAYELLDEKLLARGT [FEM1A] are 3.8 ± 0.23 and 3.85 ± 0.25. Taken in the same sequence, the figures for MDEESELIQPQDQSCWAFLPDLCL [FBXO39] were 3.45 ± 0.17 and 3.34 ± 0.33.

For MDERLSLLRSPPPPSARHRAHPPQ [KCNA3], the protein stability index turned out to be 4.55 ± 0.23 (treatment: DMSO) and 4.44 ± 0.19 (treatment: MLN4924 1 uM, 8 h). Taken in the same sequence, the figures for MDHPSREKDERQRTTKPMAQRSAH [CSNK1G1] were 5.34 ± 0.22 and 5.09 ± 0.57. Taken in the same sequence, the figures for MDPQNQHGSGSSLVVIQQPSLDSR [SPRY1] were 4.69 ± 0.096 and 4.65 ± 0.13. Taken in the same sequence, the figures for MEESKAKFENLCKLMKEILDKKVE [HSP90AB1] were 3.34 ± 0.28 and 3.29 ± 0.19. With MEKYEKLAKTGEGSYGVVFKCRNK [CDKL4], the protein stability index is 3.78 ± 0.19 (treatment: DMSO) and 3.67 ± 0.26 (treatment: MLN4924 1 uM, 8 h). Taken in the same sequence, the figures for MERPMSQADLELDYNPPRVQLSDE [CBY2] were 5.36 ± 0.22 and 5.22 ± 0.21. Taken in the same sequence, the figures for MFSDNSHCPDCGQQWFPSLELGHW [TOR1AIP2] were 2.33 ± 0.35 and 2.44 ± 0.34. The corresponding values for MGGSGSRLSKELLAEYQDLTFLTK [CIB1] are 3.175 ± 0.031 and 3.27 ± 0.28. With MGPYNPDTCPEVGFFDVLGNDRRR [ACBD3], the protein stability index is, setting by setting: (treatment: DMSO) 4.08 ± 0.37; (treatment: MLN4924 1 uM, 8 h) 4.02 ± 0.35. The corresponding values for MGWKKACDELELHQRFLREGRFWK [ZMYND11] are 2.52 ± 0.19 and 2.99 ± 0.18. Taken in the same sequence, the figures for MLAEIFCQTGGVEDQEEWHAQVVE [ZBED1] were 3.05 ± 0.2 and 3.49 ± 0.4. The corresponding values for MLDMKVNPIQGLASKWDYEKNEWK [COX4I1] are 3.75 ± 0.18 and 3.65 ± 0.21.

As to MLGRLGYLNHVRAASPQDLAGGYT [MNAT1], the protein stability index by setting is: (treatment: DMSO) 2.61 ± 0.14; (treatment: MLN4924 1 uM, 8 h) 2.59 ± 0.37. The corresponding values for MLSKGLKRKREEEEEKEPLAVDSW [SERTAD1] are 4.84 ± 0.25 and 4.87 ± 0.092. Taken in the same sequence, the figures for MNEVKESLRSIEQKYKLFQQQQLT [SPACA9] were 3.33 ± 0.13 and 3.2 ± 0.22. As for MPIPEDLSTTSGGQQSSKSDRVVA [IKZF1], the protein stability index turned out to be 5.44 ± 0.16 (treatment: DMSO) and 5.39 ± 0.2 (treatment: MLN4924 1 uM, 8 h). Regarding MQLPPALCARLAAGPGAAEPLPVE [ZNF511], the protein stability index (treatment: DMSO) was found to be 3.97 ± 0.18 and the protein stability index (treatment: MLN4924 1 uM, 8 h) is 3.86 ± 0.11. Taken in the same sequence, the figures for MQVLVTAISPGRFPEALDELPLPP [ANKRD9] were 2.17 ± 0.48 and 2.23 ± 0.19. The corresponding values for MRPTLIDLLPTFRHTLQKLTCEFN [FBXO39] are 2.35 ± 0.31 and 2.44 ± 0.54. Taken in the same sequence, the figures for MRRQEPLPPPPPPSRGGNQLPRPP [WAS] were 4.8 ± 0.18 and 4.89 ± 0.17. As for MSAQSVEEDSILIIPTPDEEEKIL [ZNF24], the protein stability index runs as follows: (treatment: DMSO) 5.08 ± 0.19; (treatment: MLN4924 1 uM, 8 h) 5.23 ± 0.1.

The sequence MSEMAELSELYEESSDLQMDVMPG [EID1] gave a protein stability index (treatment: DMSO) of 5.43 ± 0.088 and a protein stability index (treatment: MLN4924 1 uM, 8 h) of 5.25 ± 0.32.

MSGSCAVCVDRVLYLFGGHHSRGN [KLHDC2]: the protein stability index is, setting by setting: (treatment: DMSO) 2.35 ± 0.55; (treatment: MLN4924 1 uM, 8 h) 1.75 ± 0.36. Take MSYDEISQLRLVCKRMDLVCQRML [FBXO28]: the protein stability index is 2.43 ± 0.34 (treatment: DMSO) and 2.25 ± 0.36 (treatment: MLN4924 1 uM, 8 h). The corresponding values for MTDGILGKAATMEIPIHGNGEARQ [ARFIP2] are 4.58 ± 0.16 and 4.57 ± 0.13. Take MTEKQQEEAEWESINVLLMMHGLK [CEP70]: the protein stability index stood at 2.62 ± 0.27 (treatment: DMSO) and 2.73 ± 0.22 (treatment: MLN4924 1 uM, 8 h). The corresponding values for MTEWKHQRITKQLEKWMQKNVEEN [GLT8D2] are 3.85 ± 0.21 and 3.97 ± 0.41. Taken in the same sequence, the figures for MTGRVCRGCGGTDIELDAARGDAV [BRF1] were 3.65 ± 0.12 and 3.77 ± 0.18. The corresponding values for MTSSSAYYYTKVMSELFLHTPSDT [PKD2L1] are 2.51 ± 0.28 and 2.16 ± 0.28. Turning to MVLSRPCHPDDQFTTSILRHWCMK [INTS3], the protein stability index was determined as 2.21 ± 0.18 (treatment: DMSO) and 2.26 ± 0.24 (treatment: MLN4924 1 uM, 8 h).

For MVRSVAWAGFMVLLMIPWGSAAKL [CHIT1], the protein stability index by setting is: (treatment: DMSO) 3.13 ± 0.57; (treatment: MLN4924 1 uM, 8 h) 2.87 ± 0.2. Taken in the same sequence, the figures for MYPESTTGSPARLSLRQTGSPGMI [KCNAB2] were 3.7 ± 0.51 and 4.1 ± 0.4. With MYSSSCETTRNTTGIEESTDGMIL [LARP4], the protein stability index amounted to 4.33 ± 0.24 (treatment: DMSO) and 4.48 ± 0.23 (treatment: MLN4924 1 uM, 8 h). Taken in the same sequence, the figures for NAILQLVKKYKSMKLEKEEFVTLK [ESRRG] were 2.24 ± 0.37 and 2.29 ± 0.12.

For the sequence NDTDFRVYLLGNPVVWWLNLLSIA [POMT2], the protein stability index is, setting by setting: (treatment: DMSO) 2.89 ± 0.48; (treatment: MLN4924 1 uM, 8 h) 3.11 ± 0.47. Taken in the same sequence, the figures for NFDHFEILRAIGKGSFGKVCIVQK [STK32A] were 2.87 ± 0.27 and 3.02 ± 0.24. In the case of NFSTFIKCIFTQFRIILGDFDYNA [PKD2L1], the protein stability index came to 2.98 ± 0.36 (treatment: DMSO) and 2.94 ± 0.41 (treatment: MLN4924 1 uM, 8 h).

Take NGGMATTSAEIELPDVEPAAFLAL [BTBD1]: the protein stability index came to 3.86 ± 0.25 (treatment: DMSO) and 4.02 ± 0.22 (treatment: MLN4924 1 uM, 8 h).

Take NGLEDIDRILERIEDSTGLNRPGP [TCF25]: the protein stability index runs as follows: (treatment: DMSO) 4.48 ± 0.21; (treatment: MLN4924 1 uM, 8 h) 4.75 ± 0.21. The corresponding values for NGSGDMIFEGNSEKEIPVLNELPV [CPXM2] are 4.79 ± 0.34 and 5.01 ± 0.25. In the case of NKKYYKKFSIPDLDRHQLPLDDAL [DPCD], the protein stability index by setting is: (treatment: DMSO) 3.46 ± 0.13; (treatment: MLN4924 1 uM, 8 h) 3.55 ± 0.26. The corresponding values for NKLALQYGCKVADIKKVNNFIREQ [LYSMD4] are 2.25 ± 0.22 and 2.38 ± 0.42. The sequence NLLLTYLIVTSLLLLPGLNQHGII [ARL6IP1] had a protein stability index (treatment: DMSO) of 3.32 ± 0.47 and a protein stability index (treatment: MLN4924 1 uM, 8 h) of 3.25 ± 0.13. Taken in the same sequence, the figures for NLLSIALYLLSGSIIAVAMQRGAR [POMT2] were 3.2 ± 0.36 and 3.34 ± 0.13. The corresponding values for NLYVFGGYNPDYDESGGPDNEDYP [KLHDC10] are 3.9 ± 0.28 and 4.09 ± 0.22. Take NMCLVATGGADAYYEMGIHCWDVA [IMPA1]: the protein stability index worked out at 2.13 ± 0.23 (treatment: DMSO) and 2.3 ± 0.18 (treatment: MLN4924 1 uM, 8 h). Turning to NNIMKCRSRYDGHRIWMYNCHIGG [LOXL2], the protein stability index runs as follows: (treatment: DMSO) 2.5 ± 0.69; (treatment: MLN4924 1 uM, 8 h) 2.33 ± 0.42.

As for NPIQKEEDEGVDLSEGSSNEDEDL [SPANXN3], the protein stability index runs as follows: (treatment: DMSO) 4.96 ± 0.43; (treatment: MLN4924 1 uM, 8 h) 4.95 ± 0.39.

Regarding NPPAQPAPNAWQVIKGVLFRIFII [CLPTM1], the protein stability index was found to be 1.9 ± 0.18 (treatment: DMSO) and 2.09 ± 0.15 (treatment: MLN4924 1 uM, 8 h). The corresponding values for NPTSAPGSRLAEFGAAGVNRLSIG [RSAD1] are 3.87 ± 0.072 and 3.64 ± 0.28. Taken in the same sequence, the figures for NQQIHEQEKKILELEKLAEKNIIL [MTUS2] were 4.13 ± 0.18 and 4.25 ± 0.17. Consider NRIGNSGVEEIKGHPFFEGVDWEH [STK38L], for which the protein stability index is, setting by setting: (treatment: DMSO) 4.32 ± 0.26; (treatment: MLN4924 1 uM, 8 h) 4.45 ± 0.21. For the setting “treatment: DMSO”, NSCINPIALYFVSKKFKNCFQSCL [EDNRA] displayed a protein stability index of 3.27 ± 0.34. Take NSGLINHQRIHTGEKPYECVQCGK [ZNF24]: the protein stability index (treatment: DMSO) turned out to be 3.92 ± 0.17 and the protein stability index (treatment: MLN4924 1 uM, 8 h) was determined as 3.99 ± 0.31. The corresponding values for NSLDTTSWAWRGPGVLKVLWLTAS [LPCAT4] are 2.43 ± 0.62 and 2.25 ± 0.47. The corresponding values for NSSQSSSDGSCKTAGEMVFVYENA [BTBD10] are 4.22 ± 0.3 and 4.15 ± 0.22.

As for NTSLHVFVLDENDNAPAVLHPRPD [PCDHGC5], the protein stability index is 3.49 ± 0.27 (treatment: DMSO) and 3.51 ± 0.2 (treatment: MLN4924 1 uM, 8 h). The corresponding values for NVLKSYIGLGHIYSGTFALIGAAA [CLCN6] are 3.63 ± 0.91 and 3.04 ± 0.32.

As to NYFSAMYSSEDSTLASVPPAATFG [ELF3], the protein stability index by setting is: (treatment: DMSO) 3.06 ± 0.3; (treatment: MLN4924 1 uM, 8 h) 3.17 ± 0.43.

Source of the values: the supplement of paper PMC10567573.
